According to publication PMC4605657, “Interaction between TATA-Binding Protein (TBP) and Multiprotein Bridging Factor-1 (MBF1) from the Filamentous Insect Pathogenic Fungus Beauveria bassiana”:

B1: TATAC (dsDNA)
DNA 1: CAGTAAAAGCTTGGTAGTATTTATATCTTCTCTCTTTCAC
DNA 2: GTGAAAGAGAGAAGATATAAATACTACCAAGCTTTTACTG
B2: TATAP (dsDNA)
DNA 1: GGAGCGGCATATGTCAAGTATAAAGAGCGGAATGTTTTTC
DNA 2: GAAAAACATTCCGCTCTTTATACTTGACATATGCCGCTCC
B3: TATA0 (dsDNA)
DNA 1: CAGTAAAAGCTTGGTAGTATTTCTTCTCTCTTTCAC
DNA 2: GTGAAAGAGAGAAGAAATACTACCAAGCTTTTACTG

Target: BbMBF1 (multiprotein bridging factor 1) (Beauveria bassiana, UniProt J4WFU2 1-153)
Test: EMSA; Binding buffer (4 ul in 20 ul reaction): 60 mM KCl, 20 mM Tris pH 7.9, 5 mM MgCl2, 10 mM DTT, 0.2 mg/ml BSA, 10% glycerol; 30 min at 37 C; 6% non-denaturing PAGE
Settings: protein: recombinant; tags: 6xHis (C-terminal; pET28a, thrombin site); blunt

| Binder | binding result |
| --- | --- |
| B1 | no binding |
| B2 | no binding |
| B3 | no binding |
